In patent US10632208B2, “Peptide-mediated drug delivery across epithelial barrier” (Purdue Research Foundation, priority 2017, dated 2020):

Test system: NF-κB
Experiment: NF-κB luciferase reporter assay in RAW 264.7 cells
Assay type: cell-based, murine
Description: The NF-κB Luciferase reporter RAW 264.7 cell line (Novus Biologicals), which expresses an optimized Renilla luciferase reporter gene (RenSP) under the transcriptional control of an NF-κB response element, was used. The cells were seeded (1×10^5 cells/well) into 96-well luminometer-compatible plates for 16 h and then treated with analytes for 6 h. Media from each well were aspirated, and then 100 μL of ice-cold PBS was added to each well. The plates were then frozen solid at −80° C. overnight to completely lyse the cells, thawed back to room temperature, and luciferase assays were performed using the LightSwitch Luciferase assay kit (Novus Biologicals). Luminescence was measured as the relative luminescence units (RLU) using Spectramax (Spectramax, Molecular Devices) and reported as the relative fold change compared with that of the control cells that were treated with media alone. Recombinant human or mouse TNF-α (R&D Systems) and polymyxin B, LPS (E. coli Serotype R515, Re, TLR grade), and proteinase K (each from Sigma-Aldrich) were used.

B1: LAP: Listeria adhesion protein, alcohol acetaldehyde dehydrogenase of Listeria monocytogenes, 866 aa, 94 kDa; recombinant, histidine-tagged form SEQ ID NO: 10 (protein)
chain: MAIKENAAQEVLEVQKVIDRLADNGQKALKAFESYNQEQVDNIVHAMALAGLDQHMPLAKLAVEETGRGLYEDKCIKNIFATEYIWNNIKNNKTVGVINEDVQTGVIEIAEPVGVVAGVTPVTNPTSTTLFKAIIAIKTRNPIIFAFHPSAQRCSSAAAKVVYDAAIAAGAPEHCIQWVEKPSLEATKQLMNHDKVALVLATGGAGMVKSAYSTGKPALGVGPGNVPAYIDKTAKIKRSVNDIILSKSFDQGMICASEQAVIVDKEVAKEVKAEMEANKCYFVKGAEFKKLESYVINPEKGTLNPDVVGKSPAWIANQAGFKVPEDTKILVAEIKGVGDKYPLSHEKLSPVLAFIEAANQAEAFDRCEEMLVYGGLGHSAVIHSTDKEVQKAFGIRMKACRIIVNAPSAQGGIGDIYNGFIPSLTLGCGSYGKNSVSQNVSATNLLNVKRIADRRNNMQWFKLPPKIFFEKYSTQYLQKMEGVERVFIVTDPGMGSFKYVDVVIEHLKKRGNDVAYQVFADVEPDPSDVTVYKGAELMKDFKPDTIIALGGGSAMDAAKGMWLFYEHPEASFFGLKQKFLDIRKRTFKYPKLGGKAKFVAIPTTSGTGSEVTPFAVITDKENNIKYPLADYELTPDVAIVDAQYVTTVPAHITADTGMDVLTHAIESYVSVMASDYTRGLSIRAIELVFENLRESVLTGDPDAREKMHNASALAGMAFANAFLGINHSLAHKIGPEFHIPHGRANAILMPHVIRYNALKPKKHALFPRYESFRADEDYARISRIIGFPAATTEEGVKSLVDEIIKLGKDVGIDMSLKGQNVAKKDLDAVVDTLADRAFMDQCTTANPKQPLVSELKEIYLEAYKGV
modifications: Listeria monocytogenes
  NF-κB activation ability after polymyxin-B treatment: retained the NF-κB activation ability
  NF-κB activation after proteinase-K treatment: abolished
100° C., 10 min
  NF-κB activation ability after heat treatment: abolished the NF-κB activation ability
Purified proteins, LPS positive control
  NF-κB activation: NF-κB activation in a concentration-dependent manner
